Test results published in US20260226168A1 (published 2026).
Positions count from the first letter of the chain named.

T1: human GPRC5D protein (UniProt Q9NZD1 1-345)
T1 chain: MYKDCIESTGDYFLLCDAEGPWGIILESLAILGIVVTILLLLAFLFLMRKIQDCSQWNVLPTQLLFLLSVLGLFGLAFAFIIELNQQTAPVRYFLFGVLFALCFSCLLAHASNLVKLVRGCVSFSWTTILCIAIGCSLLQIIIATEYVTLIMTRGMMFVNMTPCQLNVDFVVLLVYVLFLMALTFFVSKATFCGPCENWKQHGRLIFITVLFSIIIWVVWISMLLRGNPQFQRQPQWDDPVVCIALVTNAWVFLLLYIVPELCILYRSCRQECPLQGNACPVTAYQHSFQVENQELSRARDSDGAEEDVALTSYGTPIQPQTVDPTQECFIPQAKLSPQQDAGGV

B1: Chi-105 (antibody, V domains shown)
VH: EVQLQQSGPELVKPGASVKMSCKASGYTFTDYYMNWVKQSHGKSLEWIGYIYPNNGGTGYNQRFKGKATLTADKSSSTAYMELRSLTSEDSAVYYCARWGGTRLGYYAMDYWGQGTSVTVSS
VL: DIVMTQSQKFMSTSVGDRVSVTCKASQNVGTNVVWYQQKPGQSPKLLIYWASTRHTGVPDRFTGSGSGTDFTLTISNVQSEDLADYFCQQYSRYPYTFGGGTKLEIKR
B2: Chi-89 (antibody, V domains shown)
VH: EVQLVESGGDLVKPGGSLKLSCAASGFTFSSYGMSWVRQTPDKRLEWVATISSGGSYTYYPDSVKGRFTFSRDNAKNTLYLQMSSLKSEDTAMYYCVRQALRYHMDSWGQGTSVTVSS
VL: B1 VL with V34A, L46A, W50S, T53Y, H55Y, T56S, Y86F, S92Y, R93S, Y96W
B3: Chi-131 (antibody, V domains shown)
VH: EVQLQQSGPELVKPGASVKMSCKASGYTFTNYVMHWVKQKPGQGLEWIGYFNPYNDGTNYNEKFKGKATLTSDKSSNTAYMELSSLTSEDSAVYYCARGGVRRYFDVWGAGTTVTVSS
VL: DIQMTQSPSSLSASLGERVSLTCRASQDIGSNLNWLQLGPDGTIKRLIYATFSLDSGVPKRFSGSRSGSDYSLTISSLESEDFVDYYCQQYANFPPTFGGGTKLEIKR
B4: Chi-169 (antibody, V domains shown)
VH: EVKLVESGGGLVKPGASLKLSCAASGFTFSNYGMSWVRQTSDKRLEWVASISSGGGRIYYPDNVKGRFTISRENAKNTLYLQMSSLKSEDTALYYCTRHAMDNWGQGTSVIVSS
VL: QIVLTQSPAIMSASPGEKVTMTCSASSSVSNMYWYQQKSGTSPKRWIYDTSKLASGVPARFSGSGSGTSYSLTISSMEAEDASTYYCQQWSSNPLTFGAGTTLELKR
B5: Chi-128 (antibody, V domains shown)
VH: DVQLVESGGGLVQPGGSRKVSCAASGFTFSSFGMHWVRQAPEKGLEWVAYISRGSSTIYYADTVKGRFTISRDNPKNTLFLQMTSLRSEDTAMYYCARSGYGSSSYYFDYWGQGTTLTVSS
VL: ENVLTQSPAIMSASPREKVTMTCRASSSIRSSYLHWYQQKSGASPKLWIYSTSNLASGVPARFSGSGSGTSYSLTISSVEAEDAATYYCQQFSGYPLTFGGGTKLEIKR

Target: T1, human GPRC5D protein
Assay: FACS, cells with high expression of hGPRC5D

Which EC50 does the source give for B1 here?
Its EC50 is 1.44 nM.

With B2 as the binder, how does the EC50 read?
Its EC50 is 0.7 nM.

B3 was tested. Which EC50 did it give?
The EC50 was 0.66 nM.

With B4 as the binder, how does the EC50 read?
The EC50 was 0.66 nM.

B5 was tested. Which EC50 did it give?
Its EC50 is 0.76 nM.
